Literature values, collected in PMC3720604.

Target: CK2β (Homo sapiens) (UniProt P67870)
Sequence of UniProt P67870 (P67870 2-215): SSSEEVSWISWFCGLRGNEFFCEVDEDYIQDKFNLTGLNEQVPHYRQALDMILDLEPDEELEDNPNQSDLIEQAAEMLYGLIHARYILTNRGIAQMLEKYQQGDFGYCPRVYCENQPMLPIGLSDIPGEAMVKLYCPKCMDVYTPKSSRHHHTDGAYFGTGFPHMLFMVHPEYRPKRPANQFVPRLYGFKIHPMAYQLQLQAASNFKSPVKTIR

Substance: CK2α′ (from UniProt P19784)
- Kd: 45.5 nM
